Reference: patent publication US20250361305A1 (ORIONIS BIOSCIENCES, published 2025)

What was measured:
[1] = molecular target: T1, PD-L1 antigen (ELISA of Example 2) (human, UniProt Q9NZQ7 19-239, limits assumed); assay: ELISA, signal on PD-L1 antigen
[2] = molecular target: T1, PD-L1 antigen (ELISA of Example 2); assay: ELISA, signal on PD-L1 antigen over control

T1 sequence (Q9NZQ7 19-239 limits assumed): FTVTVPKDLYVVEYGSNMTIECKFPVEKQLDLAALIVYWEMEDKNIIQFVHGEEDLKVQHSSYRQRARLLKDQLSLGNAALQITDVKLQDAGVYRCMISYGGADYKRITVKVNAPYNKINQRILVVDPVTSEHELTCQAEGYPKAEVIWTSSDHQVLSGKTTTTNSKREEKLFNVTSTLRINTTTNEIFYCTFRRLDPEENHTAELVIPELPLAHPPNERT

Binder | ELISA [1] | A/control [2]
3LIG18 (VHH, PD-L1 VHH) VHH: QVQLQESGGGLVQPGGSLRLSCAASGFNLDPYAIAWFRQAPGKEREEVSCISSSDVGTYYADSVKGRFTISRDNAKKTVYLQMNSLKPEDTAVYYCATDGYYYCSDYPHPLYWGQGTQVTVSS | 3.5 | 40
2LIG65 (VHH, PD-L1 VHH) VHH: QVQLQESGGGLVQAGGSLRLSCAASGFNLDPYAIAWFRQAPGKEREEVSCISSSDVGTYYADSVKGRFTISRDNAKKTVYLQMNSLKPEDTAVYYCATDGYYYCSDYPHPLYWGQGTQVTVSS | 2.11 | 23.6
2LIG30 (VHH, PD-L1 VHH) VHH: QVQLQESGGGLVQPGGSLRLSCAASGKIFSGNDMGWYRQAPGKQRELVGIITSGGITDYADAVKGRFTISRDNAKNMMYLQMNSLKPEDTAVYYCNMRDRTIWWGQGTQVTVSS | 1.11 | 9.59
2LIG22 (VHH, PD-L1 VHH) VHH: QVQLQESGGGLVQPGGSLRLSCAASGFTLDYYAINWFRQAPGKEREEVSCISSSDGSTYYADSVKGRFTISRDNAKNTVYLQMNSLKPEDTAVYYCATSGWRLCRPTDEYDYSYWGQGTQVTVSS | 0.469 | 4.55
2LIG48 (VHH, PD-L1 VHH) VHH: QVQLQESGGGLVQPGGSLRLSCAASGFTFNDYAMSWVRQAPGKGLEWVSGIRSNGGYTNYADSVKGRFTISRDNAKNTLYLQMNSLKSEDTAVYYCAQGYYCSGYGCYPGQGTQVTVSS | 4 | 33.2
2LIG16 (VHH, PD-L1 VHH) VHH: QVQLQESGGGLVQPGGSLRLSCAASGFTFDDYGMSWVRQAPGKGLEWVSAIRWNGGSTNYADSVKGRFTISRDNAKNTLYLQMNSLKSEDTAVYYCAQGYYCSGYGCPRGQGTQVTVSS | 3.02 | 26.4
2LIG85 (VHH, PD-L1 VHH) VHH: QVQLQESGGGLVQPGGSLRLSCAASGFTFTAYAMSWFRQAPGKEREEVSCINSSDGSTYYADSVKGRFTISRDNAKNTVYLQMNSLKPEDTAVYHCATDGWRDCTWSNEYAYWGQGTQVTVSS | 2.67 | 22.6
2LIG2 (VHH, PD-L1 VHH) VHH: QVQLQESGGGLVQAGGSLRLSCAASGFTLDYYAIGWFRQAPGKEREEVSCISSSDGSTYYADSVKGRFTISRDNAKNTVNLQMNSLKPEDTAVYYCATDGWSSCRHGINEYLYWGQGTQVTVSS | 0.51 | 3.86
3LIG3 (VHH, PD-L1 VHH) VHH: QVQLQESGGGLVQPGGSLRLSCAASGFTLDYYAIGWFRQAPGKEREEVSCISSSDGSTYYADSVKGRFTISRDNAKNTVNLQMNSLKPEDTAVYYCATDGWSSCRHGINEYLYWGQGTQVTVSS | 0.58 | 7.16
2LIG27 (VHH, PD-L1 VHH) VHH: QVQLQESGGGVVQAGGSLRLSCTASGTIFSINRMDWFRQAPGKQRELVALITSDGTPTYADSAKGRFTISRDNTKKTVSLQMNSLKPEDTAVYYCHVSSGVYNYWGQGTQVTVSS | 0.429 | 3.78
2LIG34 (VHH, PD-L1 VHH) VHH: QVQLQESGGGSVQAGGSLRLSCTASGTIFSINRMDWFRQAPGKQRELVALITSDGTPTYADSAKGRFTISRDNTKKTVSLQMNSLKPEDTAVYYCHVSSGVYNYWGQGTQVTVSS | 0.568 | 3.59
2LIG3 (VHH, PD-L1 VHH) VHH: QVQLQESGGGLVQAGGSLRLSCTASGTIFSINHMDWFRQAPGKQRELVALITSDGFPTYADSAKGRFTISRDNTKKTVSLQMNSLKPEDTAVYYCHVSSGVYNYWGQGTQVTVSS | 1.46 | 9.75
3LIG7 (VHH, PD-L1 VHH) VHH: QVQLQESGGGLVQAGGSLRLSCAASGFTFSSYGMSWVRQTPGKGPEWVSAIDSGGGSTSYADSVKGRFTISRDNAKNTLYLQMNSLKPEDTAVYYCAQGYYCSGYGCSDYWGQGTQVTVSS | 3.64 | 37.6
3LIG9 (VHH, PD-L1 VHH) VHH: QVQLQESGGGLVQPGGSLRLSCAASGFTFSSYGMSWVRQTPGKGPEWVSAIDSGGGSTSYADSVKGRFTISRDNAKNTLYLQMNSLKPEDTAVYYCAQGYYCSGYGCSDYWGQGTQVTVSS | 3.66 | 37.7
2LIG29 (VHH, PD-L1 VHH) VHH: QVQLQESGGGLVQTGGSLRLSCAASGFTFSSYGMSWVRQTPGKGPEWVSAIDSGGGSTSYADSVKGRFTISRDNAKNTLYLQMNSLKPEDTAVYYCAQGYYCSGYGCSDYWGQGTQVTVSS | 3.77 | 34.6
2LIG35 (VHH, PD-L1 VHH) VHH: QVQLQESGGGLVQPGGSLRLSCAASGFTFSSYGMSWVRQTPGKGPEWVSAIDSGGGSTSYADSVKGRFTTSRDNAKNTLYLQMNSLKPEDTAVYYCAQGYYCSGYGCSDYWGQGTQVTVSS | 0.844 | 8.18

Now from value to binder:

ELISA [1] | A/control [2] | Binder
4 | 33.3 | 2LIG139 (VHH, PD-L1 VHH) VHH: QVQLQESGGGLVQPGGSLRLSCAVSGFNLDPYAIAWFRQAPGKEREEVSCISSSDVGTYYADSVKGRFTISRDNAKKTVYLQMNSLKPEDTAVYYCATDGYYYCSDYPHPLYWGQGTQVTVSS
3.73 | 34.6 | 2LIG127 (VHH, PD-L1 VHH) VHH: QVQLQESGGGLVQPGGSLRLSCAASGFNLDPYAIGWFRQAPGKEREEVSCISSGDGSKYYADSVKGRFTMSRDNAKKTVYLQMNSLKPEDTAVYYCATDGYYYCSDYPHPLYWGQGTQVTVSS
2.88 | 27.2 | 2LIG89 (VHH, PD-L1 VHH) VHH: QVQLQESGGGLVQPGGSLRLSCAASGFNLDPYAIAWFRQAPGKEREEVSCISSSDVGTYYADSVKGRFTISRDNTKKTVYLQMNSLKPEDTAVYYCATDGYYYCSDYPHPLYWGQGTQVTVSS
2.23 | 12.9 | 2LIG189 (VHH, PD-L1 VHH) VHH: QVQLQESGGGLVQAGGSLRLSCAASGKIFSGNDMGWYRQAPGKQRELVGIITSGGITDYADAVKGRFTISRDNAKNMMYLQMNSLKPEDTAVYYCNMRDRTIWWGQGTQVTVSS
3.8 | 33.6 | 2LIG86 (VHH, PD-L1 VHH) VHH: QVQLQESGGGLVQPGGSLRLSCAASGFTFDYYAIGWFRQAPGKEREEVSCISGSDSSTYYADSVKGRFTIVRDNAQNTVYLQMNSLKPEDTAIYYCAVTGWRTCRGLNEYDYWGQGTQVTVSS
3.03 | 33.2 | 3LIG28 (VHH, PD-L1 VHH) VHH: QVQLQESGGGLVQPGGSLRLSCAASGFTLDYYAINWFRQAPGKEREEVSCISSSDGSTYYADSVKGRFTISRDNAKNTVYLQMNSLKPEDTAVYYCATSGWRLCRPTDEYDYLYWGQGTQVTVSS
0.415 | 4.22 | 2LIG176 (VHH, PD-L1 VHH) VHH: QVQLQESGGGLVQAGGSLRLSCAASESIFSIEAMGWYRQAPGKQRELVAAIFGGGFTNYADSVKGRFTISRDNANRTVYLQMNSLKPEDTAVYYCNADLVSGSSRLYDYWGQGTQVTVSS
4 | 47.3 | 3LIG30 (VHH, PD-L1 VHH) VHH: QVQLQESGGGTVQAGGSLRLSCAASGFTFNDYAMSWVRQAPGKGLEWVSGIRSNGGYTNYADSVKGRFTISRDNAKNTLYLQMNSLKSEDTAVYYCAQGYYCSGYGCYPGQGTQVTVSS
1.76 | 19.1 | 3LIG33 (VHH, PD-L1 VHH) VHH: QVQLQESGGGLVQPGTSLRLSCAASGFTLDYYAIGWFRQAPGKEREEVSCISSSDGSTYYADSVKGRFTISRDNAKNTVNLQMNSLKPEDTAVYYCATDGWSSCRHGINEYLYWGQGTQVTVSS
2.11 | 9.16 | 2LIG99 (VHH, PD-L1 VHH) VHH: QVQLQESGGGLVQAGGSLRLSCTASGTIFSINRMDWFRQAPGKQRELVALITSDGTPAYADSAKGRFTISRDNTKKTVSLQMNSLKPEDTAVYYCHVSSGVYNYWGQGTQVTVSS
0.429 | 4.39 | 3LIG8 (VHH, PD-L1 VHH) VHH: QVQLQESGGGLVQPGGSLRLSCTASGTIFSINRMDWFRQAPGKQRELVALITSDGTPTYADSAKGRFTISRDNTKKTVSLQMNSLKPEDTAVYYCHVSSGVYNYWGQGTQVTVSS
1.03 | 5.13 | 2LIG97 (VHH, PD-L1 VHH) VHH: QVQLQESGGGLVQAGESLRLSCTASGTIFSINRMDWFRQAPGKQRELVALITSDGTPTYADSAKGRFTISRDNTKKTVSLQMNSLKPEDTAVYYCHVSSGVYNYWGQGTQVTVSS
3.96 | 40.9 | 3LIG29 (VHH, PD-L1 VHH) VHH: QVQLQESGGGLVQAGGSMRLSCAASGFTFSSYGMSWVRQTPGKGPEWVSAIDSGGGSTSYADSVKGRFTISRDNAKNTLYLQMNSLKPEDTAVYYCAQGYYCSGYGCSDYWGQGTQVTVSS
3.55 | 32.6 | 2LIG109 (VHH, PD-L1 VHH) VHH: QVQLQESGGGLVQSGGSLRLSCKTSGFTFSSYGMSWVRQTPGKGPEWVSAIDSGGGSTSYADSVKGRFTISRDNAKNTLYLQMNSLKPEDTAVYYCAQGYYCSGYGCSDYWGQGTQVTVSS
